Assay: label from the status in PepcDB records
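Note: failed if final PepcDB status was selected cloned or expressed and not failed if soluble or beyond.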

Sequence	protein production
MLKSQEIRQKAPELDSLRLGSGWKSEELNKAQIIIESSFGHSHPGSAHLDTLVDEAFKSIDDNGGRGAKYFVTDICDGETQGHDGMNYSLASRDIMTNLMEIHVQATPFDAGIFIASCDKAVPAHLMAIARLDMPSILVPGGIMNAGPNMLTLEQIGTYNAQYERGEITKEQYEHYKQNACPSCGACSFMGTASTMQVMSEALGIALPGTALIPVTSKELKLAAKNAGKQILKLIELNIKPSEIMTKKAFENAIMVHAAIAGSSNCLLHIPAIAHELGMDIEPELFDEIHKKIPYILNIRPSGFYPGSYFWNAGGVPAIMEEIKEFLHLDVMTVTGKTLGENLEDLKNSGYYEEHDKLITSLGIKKEDVIRTKENPIQSQGAIAILKGNLAPGGAVVKHSAISKKLMQVVLKARVFNCEEDAIKSVLTKNIKPGDAVFVRYEGPKGSGMPEMFYTTEAIASDHELVDSTALITDGRFSGATRGPAIGHVSPEASEGGPIAFVQEGDLIKIDIPARKLDIIGTNGIEKSEKEIENILKERSQNWVKPAPRYTKGILGLYTRCASSPMKGGYME	failed
MKIAALYDIHGNYPALKEVLKQVKKLSPDLVVLGGDLIAGPMPLETLSLLKHVSTTFKTVGIMGNNDQDIVDIYAKKRVGLSRKATEQLTWIANQLSYKQVSFLRNLLPSISIGNYFFCHAVKNDNTTVFSPQQNKAYIETLFKGVQESYIICGHTHIQFELSLPNKKIINAGSIGMPFSNQFGAQWLWLDDNRIEYKRTIFNQQAAIQLISQTEYPFKNEFLEHHHHHH	failed
MATFFLVSFLSFSKWKEKRQVGLWGPEAAVTEEEEEEAGARRSGPGLAGRRLRGKGRRGRVASPAGRPDTLSRRGAGERAGCLGAGDRGLRHSDRHSPLGRGRAAPGMATSRQTASPRTRMDYLYSCQVDAMHSGMSVTRLVTQPDVLPAHRRRDIKMAAPRSCVLWSYCGHGWSRLAGDCRLPGFRRSWLGATLSARSLSQEKRAAETHFGFETVSEKEKGGKVYQVFQSVARKYDLMNDMMSLGIHRAWKDLLIRKMHPLPGTQLLDVAGGTGDIAFRFLSYVQTQHERKQRRQLRTRQNLSWEEIARKYQSKEDPLGGSLVMVCDINREMLKVGKQKALARGHTADLCECDAKLVYTVSFSSRSFTQALQEAHRVLKPGGRFLCLEFSQVNDPLISRLYDLYSFQVIPVIGEVIAGDWKSYQYLVESIRKFPNQEEFKDMIEDAGFQKVTYESLTSGIVAIHSGFKL	failed
RERLLSEAKATLQNYVAIAMTAIKPLYDAAAPGDEAARANAIKLLSAVSYGKDGYLFGYDSQVVRIFRSTSPDGLGKSFVDARDANGVYINR	failed
MDFLARATAIVGNTMVLMRRFGSPGTQAIGQSPAIPEAQKQGIMTLKMPAAKGWAPGHLPTPAPGLKVNAFARDLEHPRWIEVLPSGDVLVAEARQLPTPPKTLLDRAAQATMRRIRALGDSPNRITLLRDPDGRGEAQERETFLENQSQPFGMALVGDTFYVGNTDGIMAFPYRPGATRLEGPGRRLTTFKPGGHWTRSLIVSPDGRRIYAGVGSLSNIGDDGMEAEEGRAAIWELDLASGQARIYASGLRNPVGLAWEPTTRVLWTVVNERDGLGDETPPDYLTSVEEDGFYGWPYCYWNRIVDDRVPQDPAMVARAITPDYALGGHTASLGLCWVPAGTLPGFGDGMAIGQHGSWNRSKLSGYRLIFVPFANGRPSGPPRDILTGFLSDDEKLAYGRPVGVAVGPDRRSLLLADDVGDVIWRVTGALEHHHHHH	failed
MIRFYMSLSVVKHTILYLCFIFLLLYLKKRYPDNVIIGFFLKIRWCFINSMLHLHFIAIWIAGYRNRCSNSSWNFGYFGCCVETQAKVGRTATNLLLTES	failed
MERVGTPEEERQAGPVLPTSLESDSSKRTSWGFLITGVVGGALLTVYAVATPFITPALRKVCLPFVPATSKQVENVVRMLRHRRGPLVDIGSGDGRIVIAAAKEGFPAVGYELNPWLVWYSRYRAWRAGVHGSAKFYISDLWKVTFAQYSNVVIFGVPQMMPQLEKKLELELEDGARVIACRFPFPRWTPDHTTGEGIDTVWAYDMSAQRGRGGRPNQEWVGQKNLSETAGLQASSSETRSKLLDVE	failed
MNDFTFRCERPSLRLFAAAVVAVLLGLAPASSESVRKSGYAIGTESCGSGDLAFPRLQIDMKAGFCAGLVASEEDRLKFPRSIVQVPGRDLFVVADMGGWGHTDGRLLLLDPHAPPGQRFKELLTGLEYPFGLVIGPDRKLYASTAEAIFRFDPLADNPRGTVETIIRHMPGRRITLPDGTRLDESAHPLKQFVFDRNGRLFVNVGSHSDDCITPAPITKPCAAAEGASAMAAIWLFTPPSGGVFPALRPNDPDPPHTVYARGLRNSMALALHPNFPDAGYAFLQGENGRDLPDIFKPNEEINAIEQGRHYGWPYCYDLSTPSPEFRSVLQSGTYKSLCTANALYKPPFSLLPPHGAPLAMLYYHGAKFPELEGKLLVGLHGYRPTGSRVLAYDVDDHGFPRPSPAPVRYHVSCAADPTHSFQTDAGEVAAAPFEELIAGWHRVNGARPQGAPVGMTVAEDGAIWLVEDKNQTVIRIDRAAGDAPQPLPCDTRSQAMIDQLAAFIARDAQNSVRLTTLRKGLVEKHCLGCHSDFGLKAGQSEAEKDATVLRFMLSQDGWIYPGDPDSGRLRTRLRGLGAEKLMPPGGESLPKTEPGYARLLDTADLLVARMVPGTRIRIKAGPPQRRFFGKTNKECGEIPAAKVVVVTQRSAVDKPGFSRFFRPADPYLNGECTDDDGYYIRQEFLVPVQ	failed
MSGREFLQKLLDGERVEWKALGEIIQLEKGRQLNKDLLSSSGRYPAYNGGMSYSGFTDSYNYSENKTIISQGGASAGFVNFVTTKFYANAHCYVVLPDTEVVDNRYIYHFLKLNEERLTSCQHGAGIPALRASEITSLKIPIPCPDNPKKSLAIQAEIVRILDAFTELTAELTAELTARKKQYAYYRDRLLTFTTPPYGHPSKGGELFSLFGHPSEGGELFTPYGHSVEERELNSPSLKGWQAQPDGVVPVEWKTLGEVGHFIRGSGIQKSDFKASGVGCIHYGQIHTHYGTWTTETKSFIDPEFANRLKKAKPGDLVIATTSEDDDAVAKAVAWIGTEDVAVSTDAYIFRHTANPKYMSYFFQTDMFQEQKKPYITGTKVRRISGDNLAKILIPIPPLAEQERIVAILDQFDALTNSLTEGLPREIELRQKQYAYYRDLLFSFPKASFGGVPEGRDQFPSFGGVPEGRGGLNALEHHHHHH	failed
MILKRAYDVTPQKISTDKVRGVRKRVLIGLKDAPNFVMRLFTVEPGGLIDRHSHPWEHEIFVLKGKLTVLKEQGEETVEEGFYIFVEPNEIHGFRNDTDSEVEFLCLIPKEGGE	not failed
MSEMLYILQTVLLPIFIMIFLGYILQKKFTLDLNTLAKLNIYVFVPGFIFVKFYKTHFALSLLFYIIIFFVIYMFVLFLIGKLLSMFRKTDKGETTTLTNSLMFFNSGNYGVPVNDLVFKGDPLAMSVQVIVLSLQNIFTFSYGVFAIQSLHIGKLKALLGYFKMPVLYALLLAIILNYNHIPIPEFIWTPANYVADAMIAIALLMLGAQISNIKFSLKWSKSYAYVFIRLIIGPLIALVIIKIMGIEGIIAQTLFIASAMPTSVNSSVIAQEYDNHPELAAELVFLSTLLSAITVVIVIYMSKILF	failed
MARKIGSRYTAHQILGRGSAGTVWLGEGPDGPVAIKLLREDLASDQELVSRFVQERTALLGLDHPHVVSVRDLVVDGNDLALVMDLVRGTDLRTRLDRERRLAPEAAVAVVADVADGLAAAHAAGVVHRDVKPENVLLDMQGPLGPGGSHPALLTDFGVAKLIDTPRRTRATKIIGTPDYLAPEIVEGLPPRAAVDIYALATVLYELLAGFTPFGGGHPGAVLRRHVTETVVPLPGIPDELWQLLVQCLAKAPASRLRASELSARLRELLPMLAGMAPLDVDEPDAEQPEDAPDASAASPAAPVSTAEPVRRRGAVPLVPGAKPADSNRDTHTSMRVPAPDELAGGARGTARAPRASGAPRPGSARNRAATRRRRIAVGAGAVALVAAIGVGTWLATGGDEDGGGPQDTRNSAPAAP	failed
MVKIAASILACDLARLADEVKRVEEHVDMIHFDVMDGHFVPNISFGLPVLKALRKETKLPISVHLMITNPEDYIDRFIEEGADMVAIHYESTFHLHRLVHRVKDLGARAFVAINPHTPINLLSEIITDVDGVLVMSVNPGFSGQRFIARSLEKIRNLRKMVKELGLETEIMVDGGVNEENASILVKNGATILVMGYGIFRNDNYVELIKSIKQEREEFAD	not failed
MELKDIMHILEDMKVGVFATLDEYGNPHARHAHITAANEEGIFFMTSPETHFYDQLMGDQRVAMTAISEEGYLIQVVRVEGTARPVENDYLKTVFADNPYYQHIYKDESSDTMQVFQIYAGHGFYHSLTQGHKYIFSIGQGEHSEVRAL	not failed
MKMEELFKKHKIVAVLRANSVEEAKEKALAVFEGGVHLIEITFTVPDADTVIKELSFLKEKGAIIGAGTVTSVEQCRKAVESGAEFIVSPHLDEEISQFCKEKGVFYMPGVMTPTELVKAMKLGHTILKLFPGEVVGPQFVKAMKGPFPNVKFVPTGGVNLDNVCEWFKAGVLAVGVGSALVKGTPDEVREKAKAFVEKIRGCTE	not failed
MTPLLTAYLQAWKQYFDFSGQTTRDDFWWFMLAHLLITLVVVSIEIATNNPGWLDLFYSLISFIPMLAILVRRLHDTQRSGWWAWLFVIPVIGPFWLIYLLVQPSSSHFTDKALLS	failed
MATMNEKDYYEILGVSKDATSRDIQKAFQQKARKLHPDVNKEPDAEEKFKEVSEAYAVLSDEQKRARYDAMRSGNPFAGAPTASPYGGGYAGSAGYGNPFDGGFPFGGAWGQPRRGQAAYNPESGANVVVDIKLDAKEAKSGAHKTVRYTRFDTCGHCGGSGSVSSEHAHTCPSCGGRGHIDVDLSFLFGAGTFQTVCPECGGSGKVVADPCPDCGGSGRIRVTSEQTIEFPAGTHDGDEVRIPNMGHAGTNGASGGDLVGRAHVEAERLEGKARTGFYLMGIIAPFLVLSAISGVFSAFAMMCFIPFAMGLFMVLSDGVLHRSLLWWKRGAMQFANGFANGFMFALVSVWFASCSQQAMLSPYGMQ	failed
STAFFFRRMSPADKRKLLDELRSIYRTIVLEYFNTDAKVNERIDEFVSKAFFADISVSQVLEIHVELMDTFSKQLKLEGRSEDILLDYRLTLIDVIAHLCEMYRRSIPREV	not failed
MDKLDAMQVYVAVVDAHSFARAAEVLGQPRSTVSRVVKELEAWLGAQLLQRTTRKLSVTAEGRRYYEECKRLLAEMAAMEASFPGRSAQPAGRFKVGMPQSLARHCILPRIGEFLQQYPDLELILCSSDNVEDIIQEGFDCVIRTGRIEDSTTLVARPLARYRWMVLASPAWLAAHGRPQSIDELHQHRAVGYLNHRTGRTIDWLFSLDEGDCAIRMRETLVVDDTDAYIQAGIQGLGLIRVASYLAQPYLQSGALVACLEQAASDLPLSLVYPQNRYLPPAVRAFYDWSRRVLQPPHSEA	failed
NKDNLDLAGLTSLLSEKIKEFLQEKKMQSFYQQELETVESLQSLASRPVTHSTGSDQVELKDSGTSGVAQRVFKNALQLLQEKGLVFQRDSGSDKLYYVTTKDKDLQ	not failed
MAGTTQGAKTLYDKLWDDHLVSQRDDGSCLIYIDRHLLHEVTSPQAFEGLQLAGRQPWRLNANIATPDHNVPTSKKEREQGIAGIEDDTSRIQVQTLDDNCKTFNIVEFGINDIRQGIVHVVGPEQGLTLPGMTVVCGDSHTATHGAFGCLAHGIGTSEVEHVLATQCLIQKKSKNMLIRVDGQLGKGVTPKDVVLAIIGKIGTAGGTGYAIEFGGQVFRDMSIEGRMTVCNMAIEAGARVGMVAVDDKTIEYVQSRHYAPKGEQWDQAVAYWNTLHSDDDAVFDEVVVLNGAEIEPQVSWGTSPEMVIPVSQAVPTLEQAKDDVQRNDWTRAYQYMGLTAGQALADIQLDRVFIGSCTNSRIEDIRAAAEVVKGRKVASSIKQAMIVPGSGLVKQQAEQEGLDQVFLEAGFEWREPGCSMCLAMNSDKLQPGEHCASTSNRNFEGRQGNGGRTHLVSPAMAAAAAIAGHFVDVRSF	failed
